{
  "source": "paper PMC7790537",
  "about": "(PLoS ONE, 2021)",
  "binders": {"B1": {"name": "F11 IgA1 polymer (antibody, V domains shown)", "VH": "QVQLVQSGAEVKRPGSSVRVSCRTSGGSFTSFAISWVRQAPGQGLEWMGRITRILGVPNYAQKFQGRVTITADMPTTTAYLDLTNLRSEDTAVYYCARDSGTSHGDFDYWGQGTLVTVSS", "VL": "EIVLTQSPVTLSLSPGERATLSCRASQNVINSLVWYQQKPGQAPRLLIYGASNRATGIPARFRGSGSGTDFTLTIDSLEPEDIAVYYCQQRGTWLWSFGQGTKVEIK"}, "B2": {"name": "F11 IgA2m2 polymer (antibody, V domains shown)", "VH": "B1 VH", "VL": "B1 VL"}, "B3": {"name": "F11 IgA1 monomer (antibody, V domains shown)", "VH": "B1 VH", "VL": "B1 VL"}, "B4": {"name": "F11 IgA2m2 monomer (antibody, V domains shown)", "VH": "B1 VH", "VL": "B1 VL"}},
  "target": "recombinant trimeric HA of A/New Caledonia/20/1999 (H1N1) (Influenza A virus A/New …, UniProt Q6WG00)",
  "assay": "cell-based or functional assay",
  "data": [
    {"binder": "B1", "values": [
      {"measurement": "HI activity, minimum HI concentration, NC20 virus", "value": 62.5, "unit": "µg/mL"},
      {"measurement": "NI activity, EC50 (NI-ELLA), NC20 virus", "value": 106, "unit": "ng/mL"},
      {"measurement": "NT activity, minimum virus-neutralizing concentration, NC20 virus", "value": 15.8, "unit": "µg/mL"}
    ]},
    {"binder": "B2", "values": [
      {"measurement": "NI activity, EC50 (NI-ELLA), NC20 virus", "value": 16.2, "unit": "ng/mL"},
      {"measurement": "NT activity, minimum virus-neutralizing concentration, NC20 virus", "value": 5.57, "unit": "µg/mL"}
    ]},
    {"binder": "B3", "values": [
      {"measurement": "HI activity, minimum HI concentration, NC20 virus", "value": 62.5, "unit": "µg/mL"},
      {"measurement": "NI activity, EC50 (NI-ELLA), NC20 virus", "value": 148, "unit": "ng/mL"},
      {"measurement": "NT activity, minimum virus-neutralizing concentration, NC20 virus", "value": 28.1, "unit": "µg/mL"}
    ]},
    {"binder": "B4", "values": [
      {"measurement": "HI activity, minimum HI concentration, NC20 virus", "value": 31.3, "unit": "µg/mL"},
      {"measurement": "NI activity, EC50 (NI-ELLA), NC20 virus", "value": 61.7, "unit": "ng/mL"}
    ]}
  ]
}
